Where two headings read alike, the source gives them in different places.
Tests used:
[1] = target: full-length PrgL-His (Enterococcus faecalis (plasmid pCF10)); assay: cross-linking
[2] = target: full-length PrgL-GFP (Enterococcus faecalis (plasmid pCF10)); assay: SEC
[3] = target: PrgL_(32-208)-His, soluble C-terminal NTF2-like domain of PrgL (Enterococcus faecalis (plasmid pCF10)); assay: SEC-MALS
[4] = target: PrgL_(32-208)-His, soluble C-terminal NTF2-like domain of PrgL (Enterococcus faecalis (plasmid pCF10)); assay: SEC-MALS; remark: listed apart in the source

**Q.** full-length PrgL-His (natural protein) was tested. Which stoichiometry N [1] did it give?
**A.** Its stoichiometry N is 2.

**Q.** With full-length PrgL-GFP (natural protein) as the substance, how does the stoichiometry N [2] read?
**A.** The stoichiometry N was 2.

**Q.** Which results are given for “PrgL_(32-208)-His, soluble C-terminal NTF2-like domain of PrgL (domain or fragment)”?
**A.** stoichiometry N [3]: 2; stoichiometry N [4]: 10 to 12

Source: publication doi:10.1101/2020.10.30.342212
